Target: T1, connexin 36 (rat (endogenous in supraoptic nucleus), UniProt O70610 1-321)
T1 sequence (looked up): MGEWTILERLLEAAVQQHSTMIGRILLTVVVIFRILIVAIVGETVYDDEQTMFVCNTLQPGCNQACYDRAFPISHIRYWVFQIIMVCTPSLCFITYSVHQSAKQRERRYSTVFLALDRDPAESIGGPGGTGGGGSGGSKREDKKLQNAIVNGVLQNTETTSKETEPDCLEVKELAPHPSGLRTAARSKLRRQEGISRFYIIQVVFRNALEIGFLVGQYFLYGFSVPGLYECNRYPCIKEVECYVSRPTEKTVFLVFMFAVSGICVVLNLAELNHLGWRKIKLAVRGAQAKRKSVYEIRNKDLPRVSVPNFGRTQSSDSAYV
Assay: co-IP

B1: oxytocin-neurophysin (natural protein, rat (endogenous in supraoptic nucleus), UniProt P01179 20-125, looked up)
chain: CYIQNCPLGGKRAALDLDMRKCLPCGPGGKGRCFGPSICCADELGCFVGTAEALRCQEENYLPSPCQSGQKPCGSGGRCATAGICCSPDGCRTDPACDPESAFSER
  fold co-precipitated OT-NP in lactating rats relative to virgin rats: 1.61 fold
